Results on 3 molecules are retold here after PMC8130932 (PLoS Pathogens, 2021).

Test [1] has as its target T1, SARS-CoV-2 spike S2 subunit, recombinant (SARS-CoV-2, reference sequence, UniProt P0DTC2).
T1 construct: source: bought: Sino Biologicals, baculovirus-insect cells
Put plainly: ELISA. A general note: ELISA stands for enzyme-linked immunosorbent assay.

Test [2] has as its target T2, MERS spike glycoprotein S1+S2 extracellular domain (MERS coronavirus, isolate EMC/2012 (by …, UniProt K0BRG7)).
T2 construct: source: bought: Sino Biologicals, baculovirus-insect cells
The test can be described thus: ELISA.

Test [3] has as its target T3, Human coronavirus OC43 spike glycoprotein S1+S2 extracellular domain (Human coronavirus OC43, AVR40344.1 (by …)).
T3 construct: source: bought: Sino Biologicals
T3 chain: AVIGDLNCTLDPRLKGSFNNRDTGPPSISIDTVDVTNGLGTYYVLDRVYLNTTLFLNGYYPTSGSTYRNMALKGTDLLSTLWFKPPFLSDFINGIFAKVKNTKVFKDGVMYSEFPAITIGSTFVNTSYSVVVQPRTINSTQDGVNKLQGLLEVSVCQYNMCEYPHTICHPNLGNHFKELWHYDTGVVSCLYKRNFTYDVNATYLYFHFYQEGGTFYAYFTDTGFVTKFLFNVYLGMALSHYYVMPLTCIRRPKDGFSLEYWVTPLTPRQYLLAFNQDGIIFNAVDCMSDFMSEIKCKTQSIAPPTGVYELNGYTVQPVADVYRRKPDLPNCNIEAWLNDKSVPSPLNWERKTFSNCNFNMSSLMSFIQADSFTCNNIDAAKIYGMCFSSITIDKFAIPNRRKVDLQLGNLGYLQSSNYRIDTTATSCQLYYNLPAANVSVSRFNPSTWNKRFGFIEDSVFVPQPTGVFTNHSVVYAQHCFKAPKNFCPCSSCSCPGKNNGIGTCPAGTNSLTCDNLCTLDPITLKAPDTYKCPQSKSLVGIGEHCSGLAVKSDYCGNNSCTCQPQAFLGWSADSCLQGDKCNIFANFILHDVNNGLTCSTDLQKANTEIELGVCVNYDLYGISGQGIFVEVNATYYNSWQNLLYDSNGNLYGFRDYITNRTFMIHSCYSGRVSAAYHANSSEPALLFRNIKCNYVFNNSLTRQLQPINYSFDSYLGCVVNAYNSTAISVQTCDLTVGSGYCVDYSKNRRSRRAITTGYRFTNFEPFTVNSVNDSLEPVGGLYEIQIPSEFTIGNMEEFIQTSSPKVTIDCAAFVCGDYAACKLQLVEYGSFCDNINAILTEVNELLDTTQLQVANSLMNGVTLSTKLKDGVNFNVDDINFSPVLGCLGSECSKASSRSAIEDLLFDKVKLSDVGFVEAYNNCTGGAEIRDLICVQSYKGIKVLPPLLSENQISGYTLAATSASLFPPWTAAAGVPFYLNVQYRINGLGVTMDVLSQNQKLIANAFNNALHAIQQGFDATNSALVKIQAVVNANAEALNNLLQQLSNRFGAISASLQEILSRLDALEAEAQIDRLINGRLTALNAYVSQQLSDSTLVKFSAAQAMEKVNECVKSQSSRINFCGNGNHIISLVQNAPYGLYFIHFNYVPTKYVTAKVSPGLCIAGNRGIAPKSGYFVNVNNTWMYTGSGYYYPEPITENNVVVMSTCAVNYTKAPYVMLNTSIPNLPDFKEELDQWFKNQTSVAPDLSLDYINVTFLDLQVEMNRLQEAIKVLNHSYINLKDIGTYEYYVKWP
The test can be described thus: ELISA.

The target in test [4] is SARS-CoV-2 spike glycoprotein of wild-type virus, in infected Vero E6 cells (SARS-CoV-2 …, UniProt P0DTC2). The test can be described thus: cell-based or functional assay.
The target of test [5] is T4, SARS-CoV-2 RBD (amino acids 340-538) on MDCK-SIAT1 cells (SARS-CoV-2 (so in the source)).
T4 construct: also called MDCK-RBD; source: MDCK-SIAT1, stably transduced (lentiviral vector), on the cell surface
The test can be described thus: flow cytometry on cells. To be noted: one partner purified. In general terms: A flow cytometer gives signals particle by particle.

The target in test [6] is T5, SARS-CoV-2 NTD on MDCK-SIAT1 cells (SARS-CoV-2 (so in the source)).
T5 construct: also called MDCK-NTD
The test can be described thus: flow cytometry on cells. Conditions: one partner purified.

B1: FB 1E (antibody, V domains shown)
VH: EVQLVESGAEVKKPGESLKISCQGSGYRFNSYWIAWVRQMPGKGLEWMGSIFPTDSDIRYNPSFQGQVTISADKSISIAYLQWSSLKASDTAIYYCARHWASMVRGVIRASHYYGMDVWGQGTTVTVSS
VL: QSVLTQPPSASGSPGQSVTISCSGASSDIGDYNYVSWYQQLPGKAPKLLIYEVTKRPSGVPDRFSGSKSGNTASLTVSGLQADDEADYYCSSYAFGGSDIRVFGGGTKLAVL
notes: source: HEK293T, transfected; culture supernatant or purified
In the case of B1, the OD450 in test [1] is 1.2 OD450; in test [2], 1.01 OD450; in test [3] it was 2.34 OD450. For the same molecule, the “PRNT EC50, wild-type SARS-CoV-2 (hCoV-19/England/02/2020) on Vero E6 cells” value in test [4] was 36 nM.

B2: FB 9D (antibody, V domains shown)
VH: QVQLVESGAEVKKPGESLKISCQGSGYRFNSYWIAWVRQMPGKGLEWMGSIFPTDSDVRYNPSFQGQVTISADKSISFAYLQWSSLKASDTAIYYCARHWASMVRGVIRASHYYGMDVWGQGTTVTVSS
VL: QPVLTQPPSASGSPGQSVTISCSGASSDIGKYNYVSWYQQLPGKAPKLLIYEVTKRPSGVPDRFSGSKSGNTASLTVSGLQADDEADYYCSSYAFGGSDTRVFGGGTKLTVL
notes: as for B1
Take B2: the OD450 in test [1] came out at 1.27 OD450; in test [2], 1.5 OD450; in test [3], 2.13 OD450. Besides, the binding result in test [5] and in test [6] was “no binding” in each case.

B3: FJ 4E (antibody, V domains shown)
VH: QVQLVESGPGLVKPSETLSLTCSVSGGSISSGTYYWSWIRQQPGKGLEWIGYIYNTGRPYYNPFLKSRITISVDSSKNQFSLKLTSVTAADTAVYYCARDEYDSSDSGIQGHWFDPWGQGTLVTVSS
VL: AIRMTQSPSSLSASVGDRVTITCRTSQNINSFLNWYQQKPGKGPNLLIYGAFTLQSGVPSRFSGSGSGTDFTLTISSLQPEDFATYFCQQSYSTPWTFGQGTKVEIK
notes: as for B1
As to B3, the OD450 is 0.91 OD450 in test [1], 1.08 OD450 in test [2] and 1.68 OD450 in test [3]. Besides, the binding result in test [5] and in test [6] was “no binding” throughout.
